From PMC3972135, “Identification and Characterization of MT-1X as a Novel FHL3-Binding Partner” (PLoS ONE, 2014) come the findings set out here.

This assay deals with T1, GST-FHL3 (human, UniProt Q13643 1-280).
T1 construct: Four and a half LIM domain protein 3 (FHL3), human, full length cDNA amplified from pBV220/FHL3, in pGEX-4T-1; also called GST–FHL3 fusion protein; source: E. coli DH5α, purified (GSTrap FF column)
T1 sequence (looked up): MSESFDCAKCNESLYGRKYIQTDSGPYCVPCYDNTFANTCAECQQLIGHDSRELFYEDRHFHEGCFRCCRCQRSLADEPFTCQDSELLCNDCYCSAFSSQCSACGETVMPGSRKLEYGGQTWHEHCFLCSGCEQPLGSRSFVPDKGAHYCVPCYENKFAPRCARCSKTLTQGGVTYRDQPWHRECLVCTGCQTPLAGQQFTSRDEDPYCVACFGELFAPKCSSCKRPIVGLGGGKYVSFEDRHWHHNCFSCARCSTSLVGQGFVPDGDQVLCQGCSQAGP
Briefly: pull-down; purified GST-FHL3 or GST on Glutathione Agarose, His-MT-1X from in vitro translation added, 4°C overnight; Western blot with anti-His. The settings on record: both partners purified.

B1: His-MT-1X (natural protein)
chain: not shown
notes: MT-1X (metallothionein-1X), human; cDNA amplified by PCR from pACT2/MT-1X (the full length clone); also called pT7/MT-1X; source: in vitro translated (pT7CFE1-CHis)
Consider B1, for which the binding result was “binds”.
